# Laboratory results from patent publication US20250144178A1 (KANAPH THERAPEUTICS, published 2025).
# T1: recombinant human FAP (human, UniProt Q12884 26-760)
# T1 construct: Soluble analyte in SPR; The description calls FAP a homodimer; also called rhFAP
# T1 sequence (looked up): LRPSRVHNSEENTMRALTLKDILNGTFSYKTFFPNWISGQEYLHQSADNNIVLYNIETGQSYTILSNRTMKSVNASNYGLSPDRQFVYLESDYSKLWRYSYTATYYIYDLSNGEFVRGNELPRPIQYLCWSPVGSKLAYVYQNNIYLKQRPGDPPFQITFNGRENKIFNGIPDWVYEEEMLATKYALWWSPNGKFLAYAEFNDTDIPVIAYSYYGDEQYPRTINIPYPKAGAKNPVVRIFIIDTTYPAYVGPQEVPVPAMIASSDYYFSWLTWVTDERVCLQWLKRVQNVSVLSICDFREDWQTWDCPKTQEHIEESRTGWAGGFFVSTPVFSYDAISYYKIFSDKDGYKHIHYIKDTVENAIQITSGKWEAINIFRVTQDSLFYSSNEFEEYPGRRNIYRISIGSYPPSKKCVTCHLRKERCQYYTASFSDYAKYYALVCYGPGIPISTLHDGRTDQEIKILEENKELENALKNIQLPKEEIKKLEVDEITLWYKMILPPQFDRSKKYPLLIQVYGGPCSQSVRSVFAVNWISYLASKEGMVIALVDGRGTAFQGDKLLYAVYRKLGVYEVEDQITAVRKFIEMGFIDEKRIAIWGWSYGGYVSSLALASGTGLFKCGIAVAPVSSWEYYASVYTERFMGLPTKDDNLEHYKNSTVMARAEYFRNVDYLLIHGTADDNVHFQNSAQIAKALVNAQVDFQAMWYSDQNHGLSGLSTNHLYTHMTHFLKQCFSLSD
# Target: T1, recombinant human FAP
# Experiment: SPR, captured by anti-human IgG (Fc), human FAP analyte, 1:1 binding model
# Method: Bindings of T1.04, T1.05, T1.06, T1.07, T1.08, T1.09, T1.10 and T1.11 to recombinant human […] were identified by surface plasmon resonance (SPR). The surface of the CM5 chip was activated with a 1:1 mixture of […] (N-hydroxysuccinimide) and […] (1-Ethyl-3-(3-dimethylaminopropyl) carbodiimide), and 25 μg/ml of anti-human IgG (Fc) antibody was immobilized for 400 seconds at a rate of 10 μl/min. The remaining active ester groups were blocked with 1 M ethanolamine.
# Specifically, human proteins T1.04, T1.05, T1.06, T1.07, T1.08, T1.09, T1.10 and T1.11 were diluted to 1 μg/ml, 1 μg/ml, 1 μg/ml, 1 μg/ml, 0.5 μg/ml, 0.5 μg/ml, 0.5 μg/ml, and 1 μg/ml, respectively, and reacted on a CM5 chip immobilized with an anti-human IgG (Fc) antibody. The recombinant human FAP was diluted to 25 nM or 50 nM in 1×HBS-EP+buffer solution and diluted by serial dilution. The diluted recombinant human FAP was reacted at a rate of 30 μl/min. The association and dissociation times were 180 seconds and 400 seconds, respectively. After the dissociation, stabilization was performed for 60 seconds, and then a regeneration was performed for 30 seconds with a 10 mM glycine pH 1.5 solution at a rate of 30 μl/min.
Binder,Kd [nM],koff [s⁻¹],kon [M⁻¹ s⁻¹]
"T1.08 (anti-hu FAP/hu IL-12, hu IgG1 DANG (2 + 1, LC scFv)) (bispecific antibody, Anti-FAP scFv at the C-terminus of the light chain; knob-in-hole with the IL-12 arm) heavy: QVQLVQSGAEVKKPGASVKVSCKTSRYTFTEYTIHWVRQAPGQRLEWIGGINPNNGIPNYNQKFKGRVTITVDTSASTAYMELSSLRSEDTAVYYCARRRIAYGYDEGHAMDYWGQGTLVTVSSASTKGPSVFPLAPSSKSTSGGTAALGCLVKDYFPEPVTVSWNSGALTSGVHTFPAVLQSSGLYSLSSVVTVPSSSLGTQTYICNVNHKPSNTKVDKKVEPKSCDKTHTCPPCPAPELLGGPSVFLFPPKPKDTLMISRTPEVTCVVVAVSHEDPEVKFNWYVDGVEVHNAKTKPREEQYGSTYRVVSVLTVLHQDWLNGKEYKCKVSNKALPAPIEKTISKAKGQPREPQVYTLPPSRDELTKNQVSLWCLVKGFYPSDIAVEWESNGQPENNYKTTPPVLDSDGSFFLYSKLTVDKSRWQQGNVFSCSVMHEALHNHYTQKSLSLSPGK light: not shown not shown",0.177,7.87e-05,446000
"T1.09 (anti-hu FAP/hu IL-12 mut2, hu IgG1 DANG (2 + 1, LC scFv)) (bispecific antibody, Anti-FAP scFv at the C-terminus of the light chain; knob-in-hole with the IL-12 mut2 arm) heavy: QVQLVQSGAEVKKPGASVKVSCKTSRYTFTEYTIHWVRQAPGQRLEWIGGINPNNGIPNYNQKFKGRVTITVDTSASTAYMELSSLRSEDTAVYYCARRRIAYGYDEGHAMDYWGQGTLVTVSSASTKGPSVFPLAPSSKSTSGGTAALGCLVKDYFPEPVTVSWNSGALTSGVHTFPAVLQSSGLYSLSSVVTVPSSSLGTQTYICNVNHKPSNTKVDKKVEPKSCDKTHTCPPCPAPELLGGPSVFLFPPKPKDTLMISRTPEVTCVVVAVSHEDPEVKFNWYVDGVEVHNAKTKPREEQYGSTYRVVSVLTVLHQDWLNGKEYKCKVSNKALPAPIEKTISKAKGQPREPQVYTLPPSRDELTKNQVSLWCLVKGFYPSDIAVEWESNGQPENNYKTTPPVLDSDGSFFLYSKLTVDKSRWQQGNVFSCSVMHEALHNHYTQKSLSLSPGK light: not shown not shown",0.214,0.000111,517000
"T1.04 (anti-hu FAP/hu IL-12, hu IgG1 DANG (2 + 1)) (bispecific antibody, DVD-Ig form of the anti-FAP arm, knob-in-hole with the IL-12 arm) heavy: QVQLVQSGAEVKKPGASVKVSCKTSRYTFTEYTIHWVRQAPGQRLEWIGGINPNNGIPNYNQKFKGRVTITVDTSASTAYMELSSLRSEDTAVYYCARRRIAYGYDEGHAMDYWGQGTLVTVSSGGGGSGGGGSGGGGSQVQLVQSGAEVKKPGASVKVSCKTSRYTFTEYTIHWVRQAPGQRLEWIGGINPNNGIPNYNQKFKGRVTITVDTSASTAYMELSSLRSEDTAVYYCARRRIAYGYDEGHAMDYWGQGTLVTVSSASTKGPSVFPLAPSSKSTSGGTAALGCLVKDYFPEPVTVSWNSGALTSGVHTFPAVLQSSGLYSLSSVVTVPSSSLGTQTYICNVNHKPSNTKVDKKVEPKSCDKTHTCPPCPAPELLGGPSVFLFPPKPKDTLMISRTPEVTCVVVAVSHEDPEVKFNWYVDGVEVHNAKTKPREEQYGSTYRVVSVLTVLHQDWLNGKEYKCKVSNKALPAPIEKTISKAKGQPREPQVYTLPPSRDELTKNQVSLWCLVKGFYPSDIAVEWESNGQPENNYKTTPPVLDSDGSFFLYSKLTVDKSRWQQGNVFSCSVMHEALHNHYTQKSLSLSPGK light: not shown not shown",0.0257,1.5e-05,583000
"T1.05 (anti-hu FAP/hu IL-12 mut2, hu IgG1 DANG (2 + 1)) (bispecific antibody, DVD-Ig form of the anti-FAP arm, knob-in-hole with the IL-12 mut2 arm) heavy: QVQLVQSGAEVKKPGASVKVSCKTSRYTFTEYTIHWVRQAPGQRLEWIGGINPNNGIPNYNQKFKGRVTITVDTSASTAYMELSSLRSEDTAVYYCARRRIAYGYDEGHAMDYWGQGTLVTVSSGGGGSGGGGSGGGGSQVQLVQSGAEVKKPGASVKVSCKTSRYTFTEYTIHWVRQAPGQRLEWIGGINPNNGIPNYNQKFKGRVTITVDTSASTAYMELSSLRSEDTAVYYCARRRIAYGYDEGHAMDYWGQGTLVTVSSASTKGPSVFPLAPSSKSTSGGTAALGCLVKDYFPEPVTVSWNSGALTSGVHTFPAVLQSSGLYSLSSVVTVPSSSLGTQTYICNVNHKPSNTKVDKKVEPKSCDKTHTCPPCPAPELLGGPSVFLFPPKPKDTLMISRTPEVTCVVVAVSHEDPEVKFNWYVDGVEVHNAKTKPREEQYGSTYRVVSVLTVLHQDWLNGKEYKCKVSNKALPAPIEKTISKAKGQPREPQVYTLPPSRDELTKNQVSLWCLVKGFYPSDIAVEWESNGQPENNYKTTPPVLDSDGSFFLYSKLTVDKSRWQQGNVFSCSVMHEALHNHYTQKSLSLSPGK light: not shown not shown",0.0932,5.83e-05,625000
"T1.06 (anti-hu FAP/hu IL-12, hu IgG1 DANG (2 + 1, HC scFv)) (bispecific antibody, Anti-FAP scFv at the C-terminus of the heavy chain; knob-in-hole with the IL-12 arm) heavy: QVQLVQSGAEVKKPGASVKVSCKTSRYTFTEYTIHWVRQAPGQRLEWIGGINPNNGIPNYNQKFKGRVTITVDTSASTAYMELSSLRSEDTAVYYCARRRIAYGYDEGHAMDYWGQGTLVTVSSASTKGPSVFPLAPSSKSTSGGTAALGCLVKDYFPEPVTVSWNSGALTSGVHTFPAVLQSSGLYSLSSVVTVPSSSLGTQTYICNVNHKPSNTKVDKKVEPKSCDKTHTCPPCPAPELLGGPSVFLFPPKPKDTLMISRTPEVTCVVVAVSHEDPEVKFNWYVDGVEVHNAKTKPREEQYGSTYRVVSVLTVLHQDWLNGKEYKCKVSNKALPAPIEKTISKAKGQPREPQVYTLPPSRDELTKNQVSLWCLVKGFYPSDIAVEWESNGQPENNYKTTPPVLDSDGSFFLYSKLTVDKSRWQQGNVFSCSVMHEALHNHYTQKSLSLSPGKGGGGSGGGGSGGGGSQVQLVQSGAEVKKPGASVKVSCKTSRYTFTEYTIHWVRQAPGQRLEWIGGINPNNGIPNYNQKFKGRVTITVDTSASTAYMELSSLRSEDTAVYYCARRRIAYGYDEGHAMDYWGQGTLVTVSSGGGGSGGGGSGGGGSGGGGSDIVMTQSPDSLAVSLGERATINCKSSQSLLYSRNQKNYLAWYQQKPGQPPKLLIFWASTRESGVPDRFSGSGFGTDFTLTISSLQAEDVAVYYCQQYFSYPLTFGQGTKVEIK light: not shown not shown",0.596,6.22e-05,104000
"T1.07 (anti-hu FAP/hu IL-12 mut2, hu IgG1 DANG (2 + 1, HC scFv)) (bispecific antibody, Anti-FAP scFv at the C-terminus of the heavy chain; knob-in-hole with the IL-12 mut2 arm) heavy: QVQLVQSGAEVKKPGASVKVSCKTSRYTFTEYTIHWVRQAPGQRLEWIGGINPNNGIPNYNQKFKGRVTITVDTSASTAYMELSSLRSEDTAVYYCARRRIAYGYDEGHAMDYWGQGTLVTVSSASTKGPSVFPLAPSSKSTSGGTAALGCLVKDYFPEPVTVSWNSGALTSGVHTFPAVLQSSGLYSLSSVVTVPSSSLGTQTYICNVNHKPSNTKVDKKVEPKSCDKTHTCPPCPAPELLGGPSVFLFPPKPKDTLMISRTPEVTCVVVAVSHEDPEVKFNWYVDGVEVHNAKTKPREEQYGSTYRVVSVLTVLHQDWLNGKEYKCKVSNKALPAPIEKTISKAKGQPREPQVYTLPPSRDELTKNQVSLWCLVKGFYPSDIAVEWESNGQPENNYKTTPPVLDSDGSFFLYSKLTVDKSRWQQGNVFSCSVMHEALHNHYTQKSLSLSPGKGGGGSGGGGSGGGGSQVQLVQSGAEVKKPGASVKVSCKTSRYTFTEYTIHWVRQAPGQRLEWIGGINPNNGIPNYNQKFKGRVTITVDTSASTAYMELSSLRSEDTAVYYCARRRIAYGYDEGHAMDYWGQGTLVTVSSGGGGSGGGGSGGGGSGGGGSDIVMTQSPDSLAVSLGERATINCKSSQSLLYSRNQKNYLAWYQQKPGQPPKLLIFWASTRESGVPDRFSGSGFGTDFTLTISSLQAEDVAVYYCQQYFSYPLTFGQGTKVEIK light: not shown not shown",0.128,7.64e-05,597000
